# Data: the nanobody polyreactivity screen of Harvey et al. (2022)
# Assay: yeast display, Sf9 membrane polyspecificity reagent, FACS + sequencing; frameworks hold sequencing errors
# Summary of the method: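 A nanobody's polyreactivity label depends on the gate it was sorted from. Yeast display cells were stained with 10% biotinylated, detergent-solubilized Sf9 membrane reagent for 1 hour at 4 °C, enriched on streptavidin microbeads and sorted by FACS. The low and high (top ~1%) gates were set on anti-HA fluorescence for expression and streptavidin fluorescence for reagent binding.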
row,Sequence,polyreactivity (PSR sort gate)
1,QVQLVESGGGLVQAGGSLSLSCAASGSTFSRNTMGRYRQAPRKERELVAGISSSGGSTYYADSVKGRFTISRDNAKNTVYLQMNSLKQEDTAVYYCSARFYVSFVGYNYWGQGTQVTVSS,high polyreactivity
2,QVQLVESGGGLVQAGGSLSLSCAASGSTFYYNAMGWYRQAPGKEREFVAAINWRGGSTYYADSVKGRFTISRDNAKNTVYLQMNSLKPEDTAVYYCSAEEASTYYYVRSGYDYHFWEMYSWGQGTQVTVSS,low polyreactivity
3,QVQLVESGGGLVQAGGSLSLSCAASGSTMATYTMGWYRQAPGKERELVAAISFGGSTYYADSVKGRFTISRDNAKNTVYLQMNSLKPEDTAVYYCAVYGDSYWGAYYYSDGYWGQGTQVTVSS,low polyreactivity
4,QVQLVESGGGLVQAGGSLSLSCAATGSTFAQNAMGWYRQAPGKERELVAAISRRGGSTYYADSVKGRFTISRDNAKNTVYVQMNSLKPEDTAVYYCAADQPVRQHHRDDYWGQGTQVTVSS,low polyreactivity
5,QVQLVESGGGLVQAGGSLSLSCAAYGGIFPENAMGWYRLAPGKERELVAAMSRSGSSTYYADSVKGRFTISRDNAKNTVFLQMNSLKPEVTAVSYCAARGVKWGQGSQVTVSS,high polyreactivity
6,QVQLVESGGGLVQAGGSLSLSCADSGLTFRKYAMGWYRQAPGKERELVAAISWSGGSTYYANSVKGRFTISRDNAKNTVYLQMNSLKPEETAVYYCAAVPVHTGSMYWGFTNGYDYWGQGTQVTLSS,low polyreactivity
7,QVQLVESGGGLVQAGGSLSLSCDASGFTFRYYFMGWYRQAPGKERELVAAISYTGRTTYYADSVKGRFTISRDNAKNTVYLQMNSLKPEDTAVYYCASGAIGYNGKAYGMDYWGQGTEVTVSS,high polyreactivity
8,QVQLVESGGGLVQAGGSLSLSCDASGRIFVVKAMGWYRQAPGKERELVAAITRRGGSTYADSVKGRFTISRDNAKNTVYLQMNSLKPEDTAVYYCNAESYYGIFSYKYDYWGQGTQVTVSS,high polyreactivity
9,QVQLVESGGGLVQAGGSLSLSSAASGRTFTFNTMGWYRQAPGKERELVAAIDGDGTTNYADSVKGRFTISRDNAKYTVYLQMNSLKPEDTAVYYCAADFLYSFWYEPTFDYWGQGTQVTVSS,low polyreactivity
10,QVQLVESGGGLVQAGGSLSLSWAASGFILKINTMGWYRPAPRKERDLVADITESGGNTYADSEKWRFTISRDNAKNTVYLQMNSLKPEVTAVYYCNDDIYISPLVQVSKGYDYWGQGTQVTVSS,low polyreactivity
11,QVQLVESGGGLVQAGGSLSLTCAASGITFPRNAMGWSRQAPGKERELVAAISARGGNTYYADSVKGRFTISRDNSKNTVYLQMNSLKPEDTAVYYCNALGSSYSEPSEYDYWGQGTQVTVSS,low polyreactivity
12,QVQLVESGGGLVQAGGSLSLTCAASGITFYLYAMGWDIQAPGKERELVAAISSGSRTTYADSVKGRFTISRDNEKNTVYLQMNSLKPEDTAFYYCAAAYWNWGYYYSYDYWGQGTQVTVSS,high polyreactivity
13,QVQLVESGGGLVQAGGSLSLTCDAYGRTIYKYGMGWYREAPGKERDLVARINSNGGSTYYADSVKGRFTISRDNAKNTVYLELISLKPEDTAVYYCARSYVRSYGYYYWGQGTQVTVSS,low polyreactivity
14,QVQLVESGGGLVQAGGSRLSCAASGLIFIWYTMGWYRQAPGKERELVAAIDSSGGNTYYADSVKGRFTISRDNAKNPVYLQMNSLKPAETAVYYCATDVGHGAGNLMGYWGQGTQVTVSS,low polyreactivity
15,QVQLVESGGGLVQAGGSRRLSCAASGFFFRNYAMGWYRQAPGKEMELVAVITSSGGSTYYADSVKGRFTISRDNAKNTVYLQMNSLKPEDTAVYYCNKPGLRSGPRYDYWGQGTQVTVSS,high polyreactivity
16,QVQLVESGGGLVQAGGSRRLSCAASGFIFSGYAMGWYRQERGKERELVAAITRSGSRTYYADSVKGRFTISRDNAKNTVYLQMNSLKPEDTAVYYCAKDKPKYGISTIDYWGQGTLVTVSS,high polyreactivity

row,Sequence,polyreactivity (PSR sort gate)
1,QVQLVESGGGLVQAGGSRRLSCAASGFIFTTYTRGWYRQATGTERELVAAIRSDGVRTYYADSVKGRFTISRDNAKNTVYLQMNSLKPEDTAVYYCNRVCAVRIGAGDYWGQGTQVTVSS,high polyreactivity
2,QVQLVESGGGLVQAGGSRRLSCAASGITFGWYAMGWYRQAPGKEMEWVATISQSGTSTYYADSVKGRFTISRDNAKNTVYLKMISLKPEDTAFYYCAADYIRGYYFRVRLEVDYWGQGTQVTVSS,low polyreactivity
3,QVQLVESGGGLVQAGGSRRLSCAASGITFSRYAMGWYRQAPGKERELVAAITSSGGSTYYADSVKGRFTISRDNAKNTVYLQMNSLKPEDTAVYYCAATSYYTREQYYYWGQGTQVTVSS,high polyreactivity
4,QVQLVESGGGLVQAGGSRRLSCAASGLIFVHYTMGWYRQATGKERELVAAITSSGGSTYYAYSVKGRFTISRDNAKNTVYLEMNSMKPEDTAVYYCATKSYSPTRTRFYYWGQGTQVTVSS,high polyreactivity
5,QVQLVESGGGLVQAGGSRRLSCAASGRIFTYYAMGWYRQAPGKERELVAAISSGGSTYYADSVKGRFTISRDNAKNTVYLQMNSLKPEDTAVYYCAAAGGYYGVNWRGDSWGQGTQVTVSS,high polyreactivity
6,QVQLVESGGGLVQAGGSRRLSCAASGRTFEGNAMGWYRQAPGKERELVAAITSGGRTNYADSVKGRFTISRDNAKNTVYLQMNSLKPEDTAVYYCAVDTRDRSTYFPGQAYDFWGQGTQVTVSS,low polyreactivity
7,QVQLVESGGGLVQAGGSRRLSCAASGRTFSKNAMGWYRQAPGKERELVAAISGSGGSTYYADSVKGRFTISRDNAKNSVYLQMNSLKPEDTAVYYCAADGTGFRYLRYDYWGQGTQVTVSS,high polyreactivity
8,QVQLVESGGGLVQAGGSRRLSCAASGRTFYLYAMGWYIQARGQERELVAANTTSGGSTYYADSVKGRFTISRDKAKNTVYLQMHSLKPEDTAVYYCNKDLSTTKFDDWGQGTQVTVSS,low polyreactivity
9,QVQLVESGGGLVQAGGSRRLSCAASGRTLGHNAMGWYRQAPGKERELVAAITSRGGTTYADSVKGRFTISRDNAKNTVYLQMNSLTPEDTAVYYCAARGYAYSRYYFWGQGTQVTVSS,high polyreactivity
10,QVQLVESGGGLVQAGGSRRLSCAASGSIFYLYAMGWSRQAPGKERELVATITWSGGSTYYADSVKGRFTISRDTAKNTVYLQMNSLKPEDTAVYYCAATALEWYPAVYNQYYYWGQGTQVTVSS,low polyreactivity
11,QVQLVESGGGLVQAGGSRRLSCAASGSILSKYTMGWYRQATGKERELVAVISSSGASTYYADSVKGRFTISRDNAKNTVYLQMNSLKPEDTAVYYCATYPWYSKYRYDHWGQGTQVTVSS,high polyreactivity
12,QVQLVESGGGLVQAGGSRRLSCAASGSTFYPYAMGWYRQAPGKERELVAAITWSGGRTYYADSVKGRFTISRDNAKNTVYLQMNSLKPEDTAVYYCAADRPDRWVDYWGQGTQVTVSS,low polyreactivity
13,QVQLVESGGGLVQAGGSRRLSCAPSGSIIGEYAMGWYRQAAGKERELVAAINVNGGRTYYADSVKGRFTISRDNAKYTVYLQMNRLKPEETAVYYCNAGYYLTLDYWGQGTQVTVSS,high polyreactivity
14,QVQLVESGGGLVQAGGSRRLTCAASGSIFFYNAMGWYRQATGKERELVAAISSATSTYYADSVKGRFTISRDNAMISVYVHMNSLTEEDTAVYYCAADFSDGYFWYDYWGQGTQVTVSS,high polyreactivity
15,QVQLVESGGGLVQAGGSRRVSCAASGITFPNYAMGWYRQAPGKERELVAAITGSGGSTYYADSVKGRFTISRDNAKNTVYVQMNSLKPEDTAVYYCNAVYYRYIRGFYYWGPGTQVTVSS,high polyreactivity
